The results in this text go back to the nanobody polyreactivity screen of Harvey et al. (2022).

The series in a line: yeast display, Sf9 membrane polyspecificity reagent, FACS + sequencing; frameworks hold sequencing errors. The method in brief: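 Synthetic nanobody libraries on Saccharomyces cerevisiae BJ5465 were galactose-induced for 36–48 hours, stained 1 hour at 4 °C with 10% biotinylated, detergent-solubilized Sf9 membrane reagent and enriched on streptavidin microbeads. FACS then separated cells into low and high (top ~1%) gates by anti-HA (expression) and streptavidin (reagent binding) fluorescence. Genes were colony-PCR amplified, MiSeq 2 × 250 sequenced and CDR-length filtered. A clone's polyreactivity label is that of its gate of origin.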
For the sequence “QVQLVESGGGLVQAGGSLRLSCAASGFIFGYYAMGWYRQAPGKERELVAAINYNDDSTYYADSVKGRFTISRDNAKNTVYLQMNSLKPEDTAVYYCAARRFWPGNSYYYRYYYWGQGTQVTVSS”, the “polyreactivity (PSR sort gate)” value is “low polyreactivity”.

Take “QVQLVESGGGLVQAGGSLRLSCAASGFIFGYYAMGWYRQAPGKERELVAAITRSGGSTRYADSVKGRFTISRDKAKNTVYLQMNSLKPEDTAVYYCNAYAPRQLYGYDYWGQGTQVTVSS”: the “polyreactivity (PSR sort gate)” value was “high polyreactivity”.

In the case of “QVQLVESGGGLVQAGGSLRLSCAASGFIFGYYVMGLYTQAPGKERELVAAITTSGGSTYYADSVKGRFTISRDNAKNTVYLQMNSLKPEDTAVYYCAADGSPSLLDYWGQVTQVTVSS”, the “polyreactivity (PSR sort gate)” value is “high polyreactivity”.

On to “QVQLVESGGGLVQAGGSLRLSCAASGFIFHRYAMGWYRQAPGKERELVAAITGRGSSTYYADSVKGRFTISRDNAKNTVYLQMNCLKPEDTGVYYCNAYRYQVYDTGWFGYWGQGTQVTVSS”, for which the “polyreactivity (PSR sort gate)” value is on record as “high polyreactivity”.

For “QVQLVESGGGLVQAGGSLRLSCAASGFIFHTTVMVSYRQAPAKERELVAAISSGDSTYYADSVKGRFTISRDNAKNTVYLHMNSLKPEDTEVYYCARNVNAQKVLGGFDSWGQGTQVTVSS”, the “polyreactivity (PSR sort gate)” value was “low polyreactivity”.

As for “QVQLVESGGGLVQAGGSLRLSCAASGFIFIFYAMGWYRQAPGKERELVAAITWSDDSTYYADSVKGRFTISRDNAKNTVYLQMNSLKPEDTAVYYCAASYYWYHLRRKYDYWGQGTQVTVSS”, the “polyreactivity (PSR sort gate)” value is given as “low polyreactivity”.

With “QVQLVESGGGLVQAGGSLRLSCAASGFIFIFYAMGWYRQAPGKERELVAGISWSSSSTYYADSVKGRFTISRDNAKNTVYLLMNSLKPEDTAVYYFNAKHLPRHRDYWGQGTQVTVSS”, the “polyreactivity (PSR sort gate)” value is recorded as “low polyreactivity”.

With “QVQLVESGGGLVQAGGSLRLSCAASGFIFIRYAMGWYRQAPGKERELVAAINGGGSSTYYADSVKGRFTISRDNAKNTVYLQMNSLKPEDTAVYYCAADTDSWWYYLYYGDGFDYWGQGTQVTVSS”, the “polyreactivity (PSR sort gate)” value was “high polyreactivity”.

As for “QVQLVESGGGLVQAGGSLRLSCAASGFIFIVYAMGWYRQAPGKERELVASITYSGGGTYYADSVKGRFTISRDNAKNTVYLQKNSLKPEDTAVYYCNADVSWSYSVYREYGMDYWGQGTQVTVSS”, the “polyreactivity (PSR sort gate)” value is given as “low polyreactivity”.

In the case of “QVQLVESGGGLVQAGGSLRLSCAASGFIFKDNAMGWYRQAPGKERELVAVSSGTGVRTNYADSVKGRFTISRDNAKNTVYLQMNSLKPEDSAVYYCIADTYRRAQLRFNSWGQGTQVTVSS”, the “polyreactivity (PSR sort gate)” value was “low polyreactivity”.

As to “QVQLVESGGGLVQAGGSLRLSCAASGFIFKDYAMRWYRHSPGKERELVAAITSGVSTNYADSVKGRFTISRDNAKNTVYLQMNSLKPEDTAVSYCNAKARLAGWWLFRLEYWGQGTQVTVSS”, the “polyreactivity (PSR sort gate)” value is “low polyreactivity”.

Turning to “QVQLVESGGGLVQAGGSLRLSCAASGFIFKFNAMGWYRQAPGKERELVAAINYSAGSTYYADSVKGRFTISRDNAKNTVYLKMNSLKPEDTAVYYCNALYTYGWYSDDYWGQGTQVTVSS”, the “polyreactivity (PSR sort gate)” value was “high polyreactivity”.

Take “QVQLVESGGGLVQAGGSLRLSCAASGFIFKIYAMGWYRQAPGKERELVATISRGGSTYYADSVKGRFTISRDNAKNTVYLQMISLNPVDTAVYYCADVFYYPPFLYNYWGQGTQVTVSS”: the “polyreactivity (PSR sort gate)” value is “high polyreactivity”.

Take “QVQLVESGGGLVQAGGSLRLSCAASGFIFKKYAMGWYRQAPGKERELVAAISGSSTRTYYADSVKGRFTISRDNAKNTVYLQMNSLKPEDTAVYYCAAYYGVGFDYWGQGTQVTVSS”: the “polyreactivity (PSR sort gate)” value is “high polyreactivity”.

For “QVQLVESGGGLVQAGGSLRLSCAASGFIFKPYDMGWYRQARGKEREFVAAITYSGGRTYYADSVKGRFTISRDNAKNTVYLHMNSLKPEDTAVYYCAADQYWWYWYDYWGQGTQVTVSS”, the “polyreactivity (PSR sort gate)” value is “high polyreactivity”.

In the case of “QVQLVESGGGLVQAGGSLRLSCAASGFIFKPYTMAWYRQAPGKERELVATITFSGGSTYYADSVKGRFTISRDNAKNTVYLQMNSLKPEDTAVYYCAAPRYYRGYAIYDYWGQGTQVTVSS”, the “polyreactivity (PSR sort gate)” value was “low polyreactivity”.
